Assay results taken from patent US20250136696A1 (HARBOUR BIOMED SHANGHAI, published 2025).

T1: human B7-H7 on the cell surface (human, UniProt Q9UM44 23-414)
T1 construct: whole, on cells; also called hB7-H7; hu B7-H7
T1 sequence (looked up): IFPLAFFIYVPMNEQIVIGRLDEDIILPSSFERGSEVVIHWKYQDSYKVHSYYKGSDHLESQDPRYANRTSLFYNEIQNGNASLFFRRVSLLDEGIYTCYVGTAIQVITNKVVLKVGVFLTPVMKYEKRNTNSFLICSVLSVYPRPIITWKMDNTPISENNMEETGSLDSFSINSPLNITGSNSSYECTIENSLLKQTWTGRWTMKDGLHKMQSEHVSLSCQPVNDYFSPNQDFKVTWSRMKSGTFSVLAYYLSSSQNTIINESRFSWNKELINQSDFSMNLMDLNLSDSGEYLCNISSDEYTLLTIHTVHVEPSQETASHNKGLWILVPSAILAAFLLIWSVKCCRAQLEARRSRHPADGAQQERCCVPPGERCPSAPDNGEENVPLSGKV

T2: biotinylated human B7-H7 protein (Acro Biosystems, B77-H82F5) (human, UniProt Q9UM44 23-344, biotinylated)
T2 construct: Bought soluble protein; also called biotin-B7H7 protein
T2 sequence (looked up): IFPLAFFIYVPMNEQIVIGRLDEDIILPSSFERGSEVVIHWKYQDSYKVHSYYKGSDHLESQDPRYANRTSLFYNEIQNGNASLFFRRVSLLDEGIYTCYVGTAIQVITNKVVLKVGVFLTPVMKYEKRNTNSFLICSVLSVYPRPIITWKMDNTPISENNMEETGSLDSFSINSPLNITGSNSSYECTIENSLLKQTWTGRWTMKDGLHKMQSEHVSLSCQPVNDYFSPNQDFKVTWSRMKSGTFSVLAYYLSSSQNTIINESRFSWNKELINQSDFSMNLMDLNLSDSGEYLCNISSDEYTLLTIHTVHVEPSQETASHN


Experiments:
[1] = target: T1, human B7-H7 on the cell surface; experiment: flow cytometry, HCC827 cells
Experimental: (§1) This example was intended to study the in vitro activity of H2L2 monoclonal antibodies against human B7-H7 in binding to human/cynomolgus monkey B7-H7. Since homologous molecules of B7-H7 were not present in mice, the detection was not performed. […] The cells were adjusted to a cell density of 1×10⁶ cells/mL, respectively. The cells were seeded in a 96-well V-bottom plate (Corning, #3894) at 100 μL/well, and the antibody to be tested at 2× final concentration with 3-fold concentration gradient dilution was then added at 100 μL/well. The cells were incubated at 4° C. for 2 hours in the dark. After the incubation, the cells were rinsed twice by adding pre-chilled PBS containing 2% BSA at 100 μl/well, and centrifuged at 500 g at 4° C. for 5 minutes, and the supernatant was discarded. […] The cells were washed twice by adding pre-chilled PBS containing 2% BSA at 100 μL/well, and centrifuged at 500 g at 4° C. for 5 minutes, and the supernatant was discarded. Finally, the cells were resuspended in pre-chilled PBS containing 2% BSA at 200 μL/well, and the fluorescence signal values were read using an ACEA Novocyte3000 flow cytometer.

[2] = target: T1, human B7-H7 on the cell surface; experiment: flow cytometry, HEK-293/hu B7-H7 cells
Experimental: as §1

[3] = target: T2, biotinylated human B7-H7 protein (Acro …); experiment: flow cytometry, blocking of biotinylated human B7-H7 binding to HEK-293/CD28H cells
Experimental: This example was intended to study the in vitro blocking activity of human anti-B7-H7 antibodies against the binding of human B7-H7 to its receptor CD28H. […] The cells were adjusted to a cell density of 1×10⁶ cells/mL. […] The cells were incubated at 4° C. for 1 hour in the dark. […] The cells were rinsed twice by adding pre-chilled PBS containing 2% BSA at 100 μL/well, and were centrifuged at 500 g at 4° C. for 5 minutes, and the supernatant was discarded. A fluorescent secondary antibody (PE Streptavidin, BD, Cat #: 554061, 1:200) was added at 100 μL/well, and the cells were incubated at 4° C. for 30 minutes in the dark. The cells were washed twice by adding pre-chilled PBS at 200 μL/well, and centrifuged at 500 g at 4° C. for 5 minutes, and the supernatant was discarded. Finally, the cells were resuspended in pre-chilled PBS at 200 μL/well, and the fluorescence signal values were read using an ACEA Novocyte3000 flow cytometer. IC50 was calculated.

[4] = target: T2, biotinylated human B7-H7 protein (Acro …); experiment: BLI epitope competition on SA-captured biotinylated B7-H7; competitor (first antibody) PR003251
Experimental: Epitope competition experiments were performed on the anti-B7-H7 antibodies using the ForteBio Octet Red96e platform with the same experimental buffer as described above. […] After being equilibrated in a buffer for 120 s, the sensors were immersed in various antibodies diluted to 100 nM for 240 s, and the final signal of the antibody binding to B7-H7 was recorded as the 100% signal for that antibody. Second step, epitope competition experiment: B7-H7 was captured using SA sensors at a capture height of 0.25 nm. The sensors were immersed in a first antibody (concentration: 100 nM) for 240 s, then the SA sensors were immersed in a mixture of the first antibody and a second antibody (final concentration of both antibodies: 100 nM) for 240 s, and the difference in signals before and after immersing the sensors in the mixture of the two antibodies was recorded as the signal for that antibody as the second antibody. The inhibition rate was calculated by the following equation, […]

Row | Binder | EC50 [1] | Maximum MFI [1] | EC50 [2] | Maximum MFI [2] | IC50 [3] | Maximum inhibition rate (%) [3] | Competitive inhibition rate (%) [4]
1 | PR003264 (antibody, human IgG1, kappa, Human IgG1; also called 77G10D3) heavy: not shown light: DIQLTQSPSFLSASVGDRVTITCRASQGISSYFAWYQQKPGKAPKLLIYAASTLQSGVPSRFSGSGSGTEFTLTISSLQPEDFATYYCQHLNRYPWTFGQGTKVEIKRTVAAPSVFIFPPSDEQLKSGTASVVCLLNNFYPREAKVQWKVDNALQSGNSQESVTEQDSKDSTYSLSSTLTLSKADYEKHKVYACEVTHQGLSSPVTKSFNRGEC | 0.618 nM | 57000 MFI | 1.68 nM | 756000 MFI | 1.52 nM | 101% | 
2 | PR003251 (antibody, human IgG1, kappa, V domains shown, Human IgG1; also called 29F2C8) VH: QVQLVESGGGVVQPGRSLRLSCAVSGFTFSRYGMHWVRQAPGKGLDWVAVIWYNGNNKYYTDSVKGRFTISRDNSKNTLFLQMNSLRAEDTAVYYCARDGAYSYGPFDYWGQGTLVTVSS VL: not shown | 0.0373 nM | 53300 MFI | 1.07 nM | 813000 MFI | 1.24 nM | 16.2% | 97.9%
3 | PR003254 (antibody, human IgG1, kappa, V domains shown, Human IgG1; also called 59D6D2) VH: QVQLVESGGGVVQPGRSLRLSCAASGFTFSSYGMHWVRQAPGKGLEWVADIWYNGNNKYYADSVKGRFTISRDNSKNTLYLQMNSLRAEDTALYYCARDGGYSYGPFDYWGQGTLVTVSS VL: not shown | 0.192 nM | 45900 MFI | 1.95 nM | 762000 MFI | 1.59 nM | 27.4% | 99.1%
4 | PR003262 (antibody, human IgG1, kappa, V domains shown, Human IgG1; also called 77D5A4) VH: QVQLVESGGGVVQPGRSLRLSCAASGFTFSRYGIHWVRQAPGKGLEWVAVIWYNGRNKYYVDSVKGRFTISRDNSKNTLYLQMNSLRAEDTAVYYCARDGGYSYGPFDYWGQGTLVTVSS VL: EIVMTQSPATLSVSPGERATLSCRASQSFSNNLAWYQQKPGQAPRLLIYGASTRATGIPARFSGSGSGTEFTLTISSLQSEDFAVYYCHQYNIWPLTFGGGTKVEIKR | 0.041 nM | 54000 MFI | 1.33 nM | 822000 MFI | 3.37 nM | 26.4% | 96.4%

The remaining binders from weak to strong by EC50 [1], led by results:

Row | EC50 [1] | Maximum MFI [1] | EC50 [2] | Maximum MFI [2] | IC50 [3] | Maximum inhibition rate (%) [3] | Competitive inhibition rate (%) [4] | Binder
5 | 0.0789 nM | 53200 MFI | 1.06 nM | 763000 MFI | 1.7 nM | 59.3% | 96.9% | PR003263 (antibody, human IgG1, kappa, V domains shown, Human IgG1; also called 77E6C4) VH: QVQLVESGGGVVQPGRSLRLSCAASGFTFSYYGLNWVRQAPGKGLEWVAVIWFDGTNKYYADSVKGRFTISRDDSKNTLYLQMNSLRAEDTAVYYCARGYGSGSYYNYVMDAWGQGASVTVSS VL: EIVMTQSPATLSVSPGERATLSCRASQSVSSNLAWYQQKPGQAPRLLIYGASTGATGIPARFSGSGSGTDFTLTISSLQSEDFAVYYCQQYYKWPLTFGGGTKVEIKR
6 | 0.0439 nM | 53300 MFI | 1.13 nM | 807000 MFI | 2.47 nM | 20.4% | 100% | PR003260 (antibody, human IgG1, kappa, V domains shown, Human IgG1; also called 70F3B1) VH: QVQLVESGGGVVQPGRSLRLPCAASGFTFSRYGMHWVRQAPGKGLEWVADIWYDGSKKYYADSVKGRFTISRDNSKNTLYLQMNSLRAEDTAVYFCTRDGGYSYGPFDYWGQGTLVTVSS VL: EIVMTQSPATLSVSPGERATLSCRASQSVSSNLAWYQQKPGQAPRLLIYYASTRAPGIPARFSGSESGTEFTLTISSLQSEDFAVYYCQQYNIWPYTFGQGTKLEIKR
